Key:
[1] = target: T1, Human CD3ε stalk-Fc(knob)-Avi/CD3δ stalk-Fc(hole) (human); assay: SPR (Biacore T200, 25°C), monovalent IgG format, same conditions
T1 construct: Heterodimer of CD3 delta and CD3 epsilon ectodomains fused to a human Fc domain with knob-into-hole modifications and C-terminal Avi-tag; also called human CD3ε/δ; CD3ε/δ
Method: (§1) SPR experiments were performed as described in Example 3, with the monovalent IgG molecules prepared in Example 6.
(§2) To analyze the interaction to CD3, IgG molecules were captured for 240 s at 50 nM with a flow rate of 5 μl/min. Human and cynomolgus CD3ε stalk-Fc(knob)-Avi/CD3δ-stalk-Fc(hole) were passed at a concentration of 0.061-250 nM with a flow rate of 30 μl/min through the flow cells for 300 s. The dissociation was monitored for 800 s.

[2] = target: T1, Human CD3ε stalk-Fc(knob)-Avi/CD3δ …; assay: SPR (Biacore T200, 25°C); monovalent IgG captured by anti-PG antibody on C1 chip, CD3ε/δ-Fc as analyte; t1/2 = ln 2/koff
Method: (§3) Kinetic constants were derived using the Biacore T200 Evaluation Software (GE Healthcare Life Sciences), to fit rate equations for 1:1 Langmuir binding by numerical integration. The half-life (t_{1/2}) of the interaction was calculated using the formula t_{1/2}=ln 2/koff.
as §1, §2

[3] = target: T2, Cynomolgus CD3ε stalk-Fc(knob)-Avi/CD3δ stalk-Fc(hole) (cynomolgus); assay: as above
T2 construct: Heterodimeric Fc fusion, soluble analyte in SPR; also called cynomolgus CD3ε/δ
Method: as §3, §1, §2

[4] = target: T1, Human CD3ε stalk-Fc(knob)-Avi/CD3δ …; assay: SPR (Biacore T200, 25°C); monovalent IgG captured by anti-PG antibody on C1 chip, CD3ε/δ-Fc as analyte; 1:1 Langmuir fit; triplicates
Method: as §3, §1, §2

[5] = target: T2, Cynomolgus CD3ε stalk-Fc(knob)-Avi/CD3δ …; assay: as above
Method: as §3, §1, §2

fold increase of affinity compared to CD3orig [1]: ≤ 10 fold
t1/2 [2]: 8.25 min
t1/2 [3]: 11.8 min
Kd [4]: 0.456 nM
koff [4]: 0.0014 s⁻¹
kon [4]: 3.08e+06 M⁻¹ s⁻¹
Kd [5]: 0.224 nM
koff [5]: 0.000981 s⁻¹
kon [5]: 4.38e+06 M⁻¹ s⁻¹
B1: anti-CD3 antibody P035.093 in monovalent human IgG1 format (antibody)
heavy: not shown
chain: DKTHTCPPCPAPEAAGGPSVFLFPPKPKDTLMISRTPEVTCVVVDVSHEDPEVKFNWYVDGVEVHNAKTKPREEQYNSTYRVVSVLTVLHQDWLNGKEYKCKVSNKALGAPIEKTISKAKGQPREPQVCTLPPSRDELTKNQVSLSCAVKGFYPSDIAVEWESNGQPENNYKTTPPVLDSDGSFFLVSKLTVDKSRWQQGNVFSCSVMHEALHNHYTQKSLSLSP
light: EVQLLESGGGLVQPGGSLRLSCAASGFTFSSYAMNWVRQAPGKGLEWVSRIRSKYNNYATYYADSVKGRFTISRDDSKNTLYLQMNSLRAEDTAVYYCVRASNFPASYVSYFAYWGQGTLVTVSSASVAAPSVFIFPPSDEQLKSGTASVVCLLNNFYPREAKVQWKVDNALQSGNSQESVTEQDSKDSTYSLSSTLTLSKADYEKHKVYACEVTHQGLSSPVTKSFNRGEC
notes: also called P035.093 (in monovalent IgG format)
